In assay [1] the target is P23H bovine opsin (bovine) (UniProt P02699).
For assay [2], the target named is photoactivated bovine rhodopsin (bovine) (UniProt P02699).
The target is the same in assay [3]. The source holds these as a separate data set.

B1: Nb2 (llama nanobody against bovine rhodopsin) (VHH)
VHH: QVQLVESGGGLVQPGGSLRLSCAASGFTFSKYAMNWVRQPPGKGLEWVSGIRPSGDNPTYADSVEGRFTIIRDNDKKMVYLQMTSLKTEDTAVYYCTRGYGTMTIEGQGTQVTVSS
B1 yielded an opsin level by western blot (1D4) in HEK293S cells co-expressing Nb2 intracellularly, against the non-binding Nb16 control in assay [1] of 2 fold. In assay [2], this molecule showed a UV-Vis decay of A478 nm after addition of 5 mM hydroxylamine, plateau against bRho* alone of 4 times. Moreover, the intrinsic Trp fluorescence at 330 nm after illumination (Meta II decay, release of retinal) in assay [3] was 3 fold.

(Values after publication PMC10457330.)
